Legend:
[1] = target: Fab fragment (IgG-Fab) derived from anti-IgE monoclonal antibody Omalizumab ("Xolair" manufactured by Novartis AG), made by papain digestion; experiment: affinity chromatography, 1 mg Fab on 1 mL column, linear pH gradient 5.0 to 3.0 in 100 mM acetate buffer, pH at elution peak top, 25 °C
[2] = target: Fab fragment (IgG-Fab) derived from anti-IgE monoclonal antibody Omalizumab ("Xolair" manufactured by Novartis AG), made by papain digestion; experiment: affinity chromatography, 1 mg Fab on 1 mL column, linear pH gradient 5.0 to 2.4 in 100 mM citrate buffer, pH at elution peak top, 25 °C
[3] = target: humanized monoclonal IgG (anti-IgE monoclonal antibody, "Xolair" manufactured by Novartis AG; generic name Omalizumab); experiment: affinity chromatography, 1 mg IgG on 1 mL column, linear pH gradient 5.0 to 2.4 in 100 mM citrate buffer, pH at elution position
[4] = target: humanized monoclonal IgG (anti-IgE monoclonal antibody, "Xolair" manufactured by Novartis AG; generic name Omalizumab); experiment: affinity chromatography, 1 mg IgG on 1 mL column, linear pH gradient 5.0 to 3.0 in 100 mM acetate buffer, pH at elution position

Antibody elution pH (100 mM acetate buffer) [1]	Antibody elution pH (100 mM citrate buffer) [2]	Antibody elution pH (100 mM citrate buffer) [3]	Antibody elution pH (100 mM acetate buffer) [4]	Substance
3.47 pH	2.71 pH			VL-κ-binding peptide of Experimental product A: 4 VL-κ-binding domains (SEQ ID NO: 2) of wild Protein L of Peptostreptococcus magnus 312 strain bound through the peptides that connect domains in SEQ ID NO: 1, with an active group for immobilization at the C-terminal (designed binder)
3.6 pH	2.93 pH			Protein L ligand of the commercially available affinity separation matrix "HiTrap Protein L 1 mL-gel" manufactured by GE Healthcare
		3.53 pH	3.64 pH	Protein A ligand of the commercially available Protein A carrier "HiTrap MabSelect SuRe" manufactured by GE Healthcare
